The values that follow are results of earlier work, collected in paper PMC9200754.

By Kd is commonly meant the constant that tells how readily two partners part at equilibrium.

One series deals with p65 (Homo sapiens) (UniProt Q04206). The conditions noted are these: cited from earlier work.
A further series addresses p50 (Homo sapiens) (UniProt P19838). The conditions noted are these: cited from earlier work.

Chain of UniProt Q04206 (Q04206 whole entry): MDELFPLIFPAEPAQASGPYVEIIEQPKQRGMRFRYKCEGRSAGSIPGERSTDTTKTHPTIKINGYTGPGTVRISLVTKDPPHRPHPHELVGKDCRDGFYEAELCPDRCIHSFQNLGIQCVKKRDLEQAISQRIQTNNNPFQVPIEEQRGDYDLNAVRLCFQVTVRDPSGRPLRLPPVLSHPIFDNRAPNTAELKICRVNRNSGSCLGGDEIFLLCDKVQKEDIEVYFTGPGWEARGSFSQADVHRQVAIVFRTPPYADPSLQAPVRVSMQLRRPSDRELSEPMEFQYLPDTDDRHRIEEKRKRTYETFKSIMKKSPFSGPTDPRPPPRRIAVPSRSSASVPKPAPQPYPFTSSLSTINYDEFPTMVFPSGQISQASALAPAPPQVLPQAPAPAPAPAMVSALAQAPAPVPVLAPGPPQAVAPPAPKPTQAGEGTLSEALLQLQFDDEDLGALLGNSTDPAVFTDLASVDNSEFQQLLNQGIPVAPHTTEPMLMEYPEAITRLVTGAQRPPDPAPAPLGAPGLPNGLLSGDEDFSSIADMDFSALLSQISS

Take p50 (from UniProt P19838): the results for the Kd with p65 (Homo sapiens) and with p50 (Homo sapiens) were 10 nM and 30 nM, respectively.
